Data from PMC6019379, “RecA-like domain 2 of DNA-dependent ATPase A domain, a SWI2/SNF2 protein, mediates conformational integrity and ATP hydrolysis” (Bioscience Reports, 2018).

Experiments:
Assay in all cases: intrinsic tryptophan fluorescence titration; no ATP; Fluorescence titration (ex 295 nm, em 340 nm), one-site saturation fit; buffer, salt, pH and temperature not given in the material. Wild-type ADAAD Kd values are cited from ref 24 and not listed
Conditions in all cases: protein: recombinant; tags: His (Ni-NTA, pET-14b); hairpin
ADAAD D591H = biological target: T1, ADAAD D591H (Bos taurus (bovine), UniProt Q9TTA5 221-940, D811H)
T1 sequence: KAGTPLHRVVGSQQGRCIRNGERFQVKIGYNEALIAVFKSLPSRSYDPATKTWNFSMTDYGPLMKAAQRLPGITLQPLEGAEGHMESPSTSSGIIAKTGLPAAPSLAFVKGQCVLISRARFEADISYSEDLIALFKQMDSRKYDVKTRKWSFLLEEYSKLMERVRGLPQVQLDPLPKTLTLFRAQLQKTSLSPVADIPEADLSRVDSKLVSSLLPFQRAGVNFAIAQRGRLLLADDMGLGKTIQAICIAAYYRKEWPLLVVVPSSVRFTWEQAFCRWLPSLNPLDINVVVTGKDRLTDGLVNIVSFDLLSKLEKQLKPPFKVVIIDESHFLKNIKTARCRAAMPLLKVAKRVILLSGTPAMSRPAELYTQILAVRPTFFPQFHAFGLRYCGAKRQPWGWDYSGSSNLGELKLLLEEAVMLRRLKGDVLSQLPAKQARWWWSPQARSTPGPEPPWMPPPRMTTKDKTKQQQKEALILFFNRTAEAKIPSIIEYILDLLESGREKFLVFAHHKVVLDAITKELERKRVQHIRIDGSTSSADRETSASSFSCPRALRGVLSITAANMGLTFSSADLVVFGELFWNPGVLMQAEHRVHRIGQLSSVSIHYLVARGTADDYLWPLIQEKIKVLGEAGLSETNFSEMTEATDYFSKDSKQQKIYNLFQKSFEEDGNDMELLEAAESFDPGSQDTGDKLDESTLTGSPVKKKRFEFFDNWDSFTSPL

ADAAD S558A = biological target: T2, ADAAD S558A (Bos taurus (bovine), UniProt Q9TTA5 221-940, S778A)
T2 sequence: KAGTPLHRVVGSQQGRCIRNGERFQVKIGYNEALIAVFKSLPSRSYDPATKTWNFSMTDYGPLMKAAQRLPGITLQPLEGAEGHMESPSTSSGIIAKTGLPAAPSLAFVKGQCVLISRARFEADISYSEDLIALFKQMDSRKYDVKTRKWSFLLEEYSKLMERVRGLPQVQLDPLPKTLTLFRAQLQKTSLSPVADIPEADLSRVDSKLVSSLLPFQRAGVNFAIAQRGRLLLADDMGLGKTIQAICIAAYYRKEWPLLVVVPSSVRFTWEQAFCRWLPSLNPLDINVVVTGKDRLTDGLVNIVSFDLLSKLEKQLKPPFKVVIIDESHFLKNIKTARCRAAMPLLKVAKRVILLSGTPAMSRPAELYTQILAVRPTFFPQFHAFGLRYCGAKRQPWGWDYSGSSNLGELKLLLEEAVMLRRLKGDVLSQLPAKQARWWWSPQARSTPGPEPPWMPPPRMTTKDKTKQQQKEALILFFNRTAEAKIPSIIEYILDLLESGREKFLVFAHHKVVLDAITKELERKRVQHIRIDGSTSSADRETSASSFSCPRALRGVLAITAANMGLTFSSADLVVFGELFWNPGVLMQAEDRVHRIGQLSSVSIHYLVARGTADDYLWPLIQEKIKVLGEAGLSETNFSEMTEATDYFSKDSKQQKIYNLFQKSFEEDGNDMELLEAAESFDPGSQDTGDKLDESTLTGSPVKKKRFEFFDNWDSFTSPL

ADAAD F507W = biological target: T3, ADAAD F507W (Bos taurus (bovine), UniProt Q9TTA5 221-940, F727W)
T3 sequence: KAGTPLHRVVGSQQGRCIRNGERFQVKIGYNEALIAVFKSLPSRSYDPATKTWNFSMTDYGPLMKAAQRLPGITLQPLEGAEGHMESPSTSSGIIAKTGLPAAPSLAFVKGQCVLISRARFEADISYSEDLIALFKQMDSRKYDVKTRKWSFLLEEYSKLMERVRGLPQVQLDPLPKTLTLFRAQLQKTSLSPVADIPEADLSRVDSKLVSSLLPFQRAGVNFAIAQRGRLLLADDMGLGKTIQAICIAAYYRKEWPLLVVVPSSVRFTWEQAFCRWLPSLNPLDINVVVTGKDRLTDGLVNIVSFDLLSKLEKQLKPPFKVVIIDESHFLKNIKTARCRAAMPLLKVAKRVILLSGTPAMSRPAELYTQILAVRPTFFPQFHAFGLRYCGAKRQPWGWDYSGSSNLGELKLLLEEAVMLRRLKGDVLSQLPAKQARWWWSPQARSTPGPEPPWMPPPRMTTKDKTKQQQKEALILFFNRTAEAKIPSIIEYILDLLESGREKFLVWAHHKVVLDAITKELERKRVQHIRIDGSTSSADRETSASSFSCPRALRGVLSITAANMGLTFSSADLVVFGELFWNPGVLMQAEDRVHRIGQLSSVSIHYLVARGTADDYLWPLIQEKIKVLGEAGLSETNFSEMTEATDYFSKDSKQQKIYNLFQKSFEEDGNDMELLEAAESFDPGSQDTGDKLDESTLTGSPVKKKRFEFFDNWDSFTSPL

B1: slDNA (stem-loop DNA) (structured_DNA)
DNA: GCGCAATTGCGCTCGACGATTTTTTAGCGCAATTGCGC
Question: For B1, which Kd (ADAAD D591H) is on record?
Answer: 21.3 ± 7 nM

Question: What about the Kd (ADAAD S558A) of the same binder?
Answer: 11 ± 2.7 nM

Question: What about the Kd (ADAAD F507W) of the same binder?
Answer: 44.8 ± 9 nM
